Here are results for one molecule from patent US20160108107A1 (INSTITUT NATIONAL DE LA RECHERCHE AGRONOMIQUE INRA, published 2016).

What all share (assay): indirect ELISA, protein coated, culture supernatant at 1/50
For orientation: ELISA stands for enzyme-linked immunosorbent assay.

The target in one assay is T1, deamidated ω-2 gliadin.
T1 construct: also called ω2-D; deam. ω2
Here is the method:
(§1) 100 μl of proteins at 1 μg/ml in 50 mM carbonate buffer, pH 9.6, are incubated overnight at 4° C. at the bottom of a 96-well, bottom, plate (Nunc, Maxisorb). After 3 washes with PBS-0.05% Tween 20, an incubation with PBS-2% (w/v) milk is carried out. The PEE 14C7 monoclonal antibody (100 μl of various dilutions of antibody in PBS-0.1% (w/v) milk) is incubated for 1 h at ambient temperature. After washes with PBS-0.05% Tween 20, 100 μl of the peroxidase-coupled goat anti-mouse IgG secondary antibody (ref: 170-6516, Bio-Rad) diluted to 1/3000 is incubated for 1 h at ambient temperature under the same conditions as the primary antibody. After 3 washes, the OPD (0-phenylenediamine, ref: P-1526, Sigma) substrate is incubated for 30 min in the dark. The reaction is stopped by adding 50 μl of H2SO₄ 4N. The optical densities are read at dual wavelength (490 nm for measuring the hydrolysis of the substrate and 630 nm for eliminating the background noise) on a plate spectrometer (Bioteck, E1x808-1).
(§2) The percentages of reactivity of the antibody with respect to each protein are determined as described in Tranquet et al. (2012). In the present case, the percentages are determined at the 1/50 dilution of the culture supernatant (i.e. the strongest dilution which makes it possible to obtain the strongest absorbence on the best-recognized protein—deamidated gamma-gliadins). The percentage recognition of a protein X is obtained by calculating the Protein X absorbence/deamidated gamma-gliadin absorbence ratio.

Another assay has as its target T2, native ω-2 gliadin.
T2 construct: also called non-deamidated ω-2 gliadin
As to the method:
as §1, §2

The target in assay [1] is T3, native high-molecular-weight glutenin.
T3 construct: also called HMW
Here is the method: as §1, §2

The target of another assay is T4, native α-gliadin.
T4 construct: also called non-deamidated α-gliadin
As to the method:
as §1, §2

Assay [2] deals with T5, deamidated low-molecular weight glutenin.
T5 construct: also called Glut; LMW-D; deam; LMW
Here is the method: as §1, §2

Assay [3] concerns the target T6, native low-molecular-weight glutenin.
T6 construct: also called LMW
As to the method:
as §1, §2

The target of the next assay is T7, native γ-gliadin.
T7 construct: also called non-deamidated γ-gliadin
As to the method: as §1, §2

Assay [4] has as its target non-deamidated native ω-5 gliadin. As to the method: as §1, §2
For the next assay, the target named is T8, deamidated ω-5 gliadin.
T8 construct: also called ω5-D; deam. ω5
As to the method: as §1, §2

For the next assay, the target named is T9, deamidated α-gliadin.
T9 construct: also called α-D; deam. α
As to the method: as §1, §2

The next assay addresses T10, native β-gliadin.
T10 construct: also called non-deamidated β-gliadin
As to the method:
as §1, §2

B1: PEE 14C7 monoclonal antibody (antibody, IgG1, V domains shown)
VH: DVQLQESGPDLVKPSQSLSLTCTVTGYSITSGYSWHWIRQFPGNKLEWMGYIHYSGSTNYNPSLKSRISITRDTSKNQFFLQLNSVTTEDTATYYCASGYFDVWGAGTTVTVSS
VL: DVVMTQTPLSLPVSLGDQASISCRSSQSLVHSNGNTYLHWYLQKPGQSPKLLIYKVSNRFSGVPDRFSGSGSGTDFTLKISRVEAEDLGVYFCSQSTLVPWTFGGGTKLEIK
notes: Used in the assays as hybridoma culture supernatant; also called PEE 14C7 antibody; monoclonal antibody produced by the PEE 14C7 hybridoma
For the molecule B1, the “percentage of reactivity (Protein X absorbence/deamidated gamma-gliadin absorbence)” value was determined as 94% in the assay with deamidated ω-2 gliadin; 39% with native ω-2 gliadin; 2% in [1]; 1% with native α-gliadin; 97% in [2]; 26% in [3]. Besides, the “percentage of reactivity (Protein X absorbence/deamidated gamma-gliadin absorbence)” value with native γ-gliadin worked out at 1%; in assay [4], 7%; with deamidated ω-5 gliadin, 99%; in the assay with deamidated α-gliadin it was 76%; in the assay with native β-gliadin it was 4%.
